Laboratory results reported in FireProtDB (doi:10.1021/bi00118a013).

B1: Guanyl-specific ribonuclease T1, P00651 (parent)
chain: MMYSKLLTLTTLLLPTALALPSLVERACDYTCGSNCYSSSDVSTAQAAGYQLHEDGETVGSNSYPHKYNNYEGFDFSVSSPYYEWPILSSGDVYSGGSPGADRVVFNENNQLAGVITHTGASGNNFVECT

Variants of: B1
Settings: Aspergillus oryzae (strain ATCC 42149 / RIB 40), pH 7, Fluorescence, MOPS 30 mM, reversible: yes, structure 1RN1, whole UniProt chain shown

Row | Variant | ddG of mutation (higher = less stable) (25 °C, Urea) [kcal/mol] | denaturant m value (25 °C, Urea) [kcal/mol/M] | denaturant midpoint (higher = more stable) (25 °C, Urea) [M] | ddG of mutation (higher = less stable) (50.9 °C, Thermal) [kcal/mol] | Tm (Thermal) [°C] | change of melting temperature, mutant - wild type (higher = more stable) (Thermal) [°C] | unfolding enthalpy (van 't Hoff) (Thermal) [kcal/mol]
1 | MMYSKLLTLTTLLLPTALALPSLVERACDYTCGSNCYSSSDVSTAQAAGYQLHEDGETVGSNSYPHKFNNYEGFDFSVSSPYYEWPILSSGDVYSGGSPGADRVVFNENNQLAGVITHTGASGNNFVECT [Y68F] | -1.14 | 1.17 | 6.24 | -1.15 | 54.3 | 3.4 | 106
2 | MMYSKLLTLTTLLLPTALALPSLVERACDYTCGSACYSSSDVSTAQAAGYQLHEDGETVGSNSYPHKYNNYEGFDFSVSSPYYEWPILSSGDVYSGGSPGADRVVFNENNQLAGVITHTGASGNNFVECT [N35A] | 0.9 | 1.28 | 4.56 | 0.71 | 48.8 | -2.1 | 101
3 | MMYSKLLTLTTLLLPTALALPSLVERACDYTCGSNCYSSSDVSTAQAAGYQLHEDGETVGSNSYPHKYNAYEGFDFSVSSPYYEWPILSSGDVYSGGSPGADRVVFNENNQLAGVITHTGASGNNFVECT [N70A] | 2.08 | 1.3 | 3.59 | – | – | – | –
4 | MMYSKLLTLTTLLLPTALALPSLVERACDYTCGSNCYASSDVSTAQAAGYQLHEDGETVGSNSYPHKYNNYEGFDFSVSSPYYEWPILSSGDVYSGGSPGADRVVFNENNQLAGVITHTGASGNNFVECT [S38A] | 1.23 | 1.28 | 4.29 | 1.08 | 47.7 | -3.2 | 99
5 | MMYSKLLTLTTLLLPTALALPSLVERACDYTCGSNCYSSSDVSTAQAAGYQLHEDGETVGSNSYPHKYNNYEGFDFSVSSPFYEWPILSSGDVYSGGSPGADRVVFNENNQLAGVITHTGASGNNFVECT [Y82F] | 0.78 | 1.26 | 4.65 | 0.71 | 48.8 | -2.1 | 99
6 | MMYSKLLTLTTLLLPTALALPSLVERACDYTCGSNCYSSSDVSTAQAAGYQLHEDGETVGSASYPHKYNNYEGFDFSVSSPYYEWPILSSGDVYSGGSPGADRVVFNENNQLAGVITHTGASGNNFVECT [N62A] | -0.03 | 1.31 | 5.31 | 0 | 50.9 | 0 | 111
7 | MMYSKLLTLTTLLLPTALALPSLVERACDYTCGSNCFSSSDVSTAQAAGYQLHEDGETVGSNSYPHKYNNYEGFDFSVSSPYYEWPILSSGDVYSGGSPGADRVVFNENNQLAGVITHTGASGNNFVECT [Y37F] | 2.11 | 1.27 | 3.56 | 2.03 | 44.9 | -6 | 101
8 | MMYSKLLTLTTLLLPTALALPSLVERACDYTCGSNCYSSSDVSTAQAAGYQLHEDGETVGSNSYPHKYNNYEGFDFSVSSPYFEWPILSSGDVYSGGSPGADRVVFNENNQLAGVITHTGASGNNFVECT [Y83F] | 0.5 | 1.29 | 4.88 | 0.44 | – | – | –
